We go through 94 variants from the supplement of paper PMC10567573.

B1: ZNF263 (parent)
chain: RTHTGEKPYKCTLCGENFSHRSNL
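Further: lentivirally expressed fusions sorted by FACS into six bins by GFP to DsRed ratio, PSI derived from sequencing read proportions per bin multiplied by bin number.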

The variants in the data set derive from B1. In words: protein stability index of a GFP-peptide fusion (GPS, HEK-293T) (PSI 1-6); higher = more stable. Conditions: c terminus: a fixed tail appended.
For RTHTGEKPYKCTPCGENFSHRSNL [L13P], the protein stability index came to 2.31.

On to RTHTGEKPYKCCLCGENFSHRSNL [T12C], for which the protein stability index is 1.84. For RTHTGEKPYKCQLCGENFSHRSNL [T12Q], the protein stability index is 2.04. The result for RTHTGEKPYKCDLCGENFSHRSNL [T12D] reads 2.01; that for RTHTGEKPYKCNLCGENFSHRSNL [T12N], 2.44; that for RTHTGEKPYKCHLCGENFSHRSNL [T12H], 1.68. RTHTGEKPYKCRLCGENFSHRSNL [T12R]: the protein stability index stood at 2.37. With RTHTGEKPYKCILCGENFSHRSNL [T12I], the protein stability index came to 1.92.

For RTHTGEKPYKCMLCGENFSHRSNL [T12M], the protein stability index was 1.43. On to RTHTGEKPYKCVLCGENFSHRSNL [T12V], for which the protein stability index came out at 1.65.

Take RTHTGEKPYKCFLCGENFSHRSNL [T12F]: the protein stability index was 2.1. Take RTHTGEKPYKCSLCGENFSHRSNL [T12S]: the protein stability index stood at 1.87. For RTHTGEKPYKCELCGENFSHRSNL [T12E], the protein stability index came to 1.8. Turning to RTHTGEKPYKCALCGENFSHRSNL [T12A], the protein stability index was found to be 2.07.

With RTHTGEKPYKCKLCGENFSHRSNL [T12K], the protein stability index was found to be 1.98.

In the case of RTHTGEKPYKCPLCGENFSHRSNL [T12P], the protein stability index was found to be 2.4.

RTHTGEKPYKCGLCGENFSHRSNL [T12G]: the protein stability index stood at 1.74. As for RTHTGEKPYKCYLCGENFSHRSNL [T12Y], the protein stability index was 1.5. For RTHTGEKPYKCLLCGENFSHRSNL [T12L], the protein stability index came out at 2.23. The result for RTHTGEKPYKCWLCGENFSHRSNL [T12W] reads 2.22. For the variant RTHTGEYPYKCTLCGENFSHRSNL [K7Y], the protein stability index was determined as 1.73.

With RTHTGECPYKCTLCGENFSHRSNL [K7C], the protein stability index is 3.39. With RTHTGELPYKCTLCGENFSHRSNL [K7L], the protein stability index was 1.86. For RTHTGENPYKCTLCGENFSHRSNL [K7N], the protein stability index stood at 1.9. Turning to RTHTGEIPYKCTLCGENFSHRSNL [K7I], the protein stability index was determined as 1.99.

For RTHTGEPPYKCTLCGENFSHRSNL [K7P], the protein stability index amounted to 1.62. In the case of RTHTGEFPYKCTLCGENFSHRSNL [K7F], the protein stability index turned out to be 1.85. Turning to RTHTGEDPYKCTLCGENFSHRSNL [K7D], the protein stability index was determined as 2.02. Regarding RTHTGEAPYKCTLCGENFSHRSNL [K7A], the protein stability index is 2.04. Under RTHTGEGPYKCTLCGENFSHRSNL [K7G] stands 2.31. Take RTHTGESPYKCTLCGENFSHRSNL [K7S]: the protein stability index was found to be 2.2. Under RTHTGETPYKCTLCGENFSHRSNL [K7T] stands 1.94. With RTHTGEHPYKCTLCGENFSHRSNL [K7H], the protein stability index amounted to 2.19.

As to RTHTGEWPYKCTLCGENFSHRSNL [K7W], the protein stability index was determined as 2.03. As to RTHTGERPYKCTLCGENFSHRSNL [K7R], the protein stability index was determined as 2.04.

Turning to RTHTGEEPYKCTLCGENFSHRSNL [K7E], the protein stability index was 2.12. With RTHTGEVPYKCTLCGENFSHRSNL [K7V], the protein stability index was determined as 2.37. Take RTHTGEMPYKCTLCGENFSHRSNL [K7M]: the protein stability index was found to be 1.97. In the case of RTHTGEQPYKCTLCGENFSHRSNL [K7Q], the protein stability index is 1.71. Consider RTHTGEKPYKCTLRGENFSHRSNL [C14R], for which the protein stability index came to 3.17. Turning to RTHTGEKPYKCTLYGENFSHRSNL [C14Y], the protein stability index stood at 2.52. On to RTHTGEKPYKCTLGGENFSHRSNL [C14G], for which the protein stability index came to 3.13. Regarding RTHTGEKPYKCTLAGENFSHRSNL [C14A], the protein stability index was 3.07. As to RTHTGEKPYKCTLWGENFSHRSNL [C14W], the protein stability index stood at 2.39.

On to RTHTGEKPYKCTLIGENFSHRSNL [C14I], for which the protein stability index turned out to be 2.98. RTHTGEKPYKCTLKGENFSHRSNL [C14K]: the protein stability index stood at 3.48.

RTHTGEKPYKCTLTGENFSHRSNL [C14T]: the protein stability index was determined as 3.37.

Consider RTHTGEKPYKCTLLGENFSHRSNL [C14L], for which the protein stability index was 2.73. The result for RTHTGEKPYKCTLPGENFSHRSNL [C14P] reads 2.83.

Consider RTHTGEKPYKCTLHGENFSHRSNL [C14H], for which the protein stability index worked out at 2.84.

As for RTHTGEKPYKCTLVGENFSHRSNL [C14V], the protein stability index was 3.3.

With RTHTGEKPYKCTLNGENFSHRSNL [C14N], the protein stability index was found to be 3.19. For the variant RTHTGEKPYKCTLMGENFSHRSNL [C14M], the protein stability index came out at 3.43. The result for RTHTGEKPYKCTLDGENFSHRSNL [C14D] reads 2.96; that for RTHTGEKPYKCTLSGENFSHRSNL [C14S], 3.01. With RTHTGEKPYKCTLFGENFSHRSNL [C14F], the protein stability index stood at 2.66. Consider RTHTGEKPYKCTLEGENFSHRSNL [C14E], for which the protein stability index was found to be 4.05. Under RTHTGEKPYKCTLQGENFSHRSNL [C14Q] stands 3.45; under RTHTGEKPYHCTLCGENFSHRSNL [K10H], 2.2. Consider RTHTGEKPYDCTLCGENFSHRSNL [K10D], for which the protein stability index is 2.68. Turning to RTHTGEKPYICTLCGENFSHRSNL [K10I], the protein stability index was determined as 1.72. Turning to RTHTGEKPYACTLCGENFSHRSNL [K10A], the protein stability index amounted to 1.75. For RTHTGEKPYNCTLCGENFSHRSNL [K10N], the protein stability index was determined as 1.91. As for RTHTGEKPYYCTLCGENFSHRSNL [K10Y], the protein stability index is 1.93. Turning to RTHTGEKPYCCTLCGENFSHRSNL [K10C], the protein stability index was 2.44.

On to RTHTGEKPYVCTLCGENFSHRSNL [K10V], for which the protein stability index was found to be 2.05. On to RTHTGEKPYQCTLCGENFSHRSNL [K10Q], for which the protein stability index is 2.36.

On to RTHTGEKPYRCTLCGENFSHRSNL [K10R], for which the protein stability index came out at 1.81. On to RTHTGEKPYFCTLCGENFSHRSNL [K10F], for which the protein stability index came to 1.76. For RTHTGEKPYWCTLCGENFSHRSNL [K10W], the protein stability index was found to be 2.38. Under RTHTGEKPYTCTLCGENFSHRSNL [K10T] stands 1.78. The result for RTHTGEKPYMCTLCGENFSHRSNL [K10M] reads 1.97; that for RTHTGEKPYSCTLCGENFSHRSNL [K10S], 1.58. For the variant RTHTGEKPYPCTLCGENFSHRSNL [K10P], the protein stability index amounted to 2.03. For RTHTGEKPYECTLCGENFSHRSNL [K10E], the protein stability index was determined as 2.04. Under RTHTGEKPYGCTLCGENFSHRSNL [K10G] stands 2.06; under RTHTGEKPYLCTLCGENFSHRSNL [K10L], 1.86; under RTHTGEKPYKCTLCNENFSHRSNL [G15N], 1.87. In the case of RTHTGEKPYKCTLCHENFSHRSNL [G15H], the protein stability index came out at 2.23. As to RTHTGEKPYKCTLCLENFSHRSNL [G15L], the protein stability index came out at 1.97.

For the variant RTHTGEKPYKCTLCPENFSHRSNL [G15P], the protein stability index is 2.57. Regarding RTHTGEKPYKCTLCIENFSHRSNL [G15I], the protein stability index is 2.13.

For the variant RTHTGEKPYKCTLCRENFSHRSNL [G15R], the protein stability index worked out at 1.75.

RTHTGEKPYKCTLCFENFSHRSNL [G15F]: the protein stability index was found to be 2.17. The result for RTHTGEKPYKCTLCSENFSHRSNL [G15S] reads 1.62; that for RTHTGEKPYKCTLCMENFSHRSNL [G15M], 1.9; that for RTHTGEKPYKCTLCDENFSHRSNL [G15D], 2.1.

Consider RTHTGEKPYKCTLCCENFSHRSNL [G15C], for which the protein stability index came to 1.59. For the variant RTHTGEKPYKCTLCAENFSHRSNL [G15A], the protein stability index came out at 1.68.

As for RTHTGEKPYKCTLCKENFSHRSNL [G15K], the protein stability index amounted to 2.13. Take RTHTGEKPYKCTLCVENFSHRSNL [G15V]: the protein stability index amounted to 1.57. The result for RTHTGEKPYKCTLCTENFSHRSNL [G15T] reads 1.79; that for RTHTGEKPYKCTLCEENFSHRSNL [G15E], 1.76. Turning to RTHTGEKPYKCTLCQENFSHRSNL [G15Q], the protein stability index was 2.15.
